# Measured values as given in paper PMC6635489.
# B1: GluK3: T249A/T397A (protein)
# parent chain: MTAPWRRLRSLVWEYWAGFLVCAFWIPDSRGMPHVIRIGGIFEYADGPNAQVMNAEEHAFRFSANIINRNRTLLPNTTLTYDIQRIHFHDSFEATKKACDQLALGVVAIFGPSQGSCTNAVQSICNALEVPHIQLRWKHHPLDNKDTFYVNLYPDYASLSHAILDLVQSLKWRSATVVYDDSTGLIRLQELIMAPSRYNIRLKIRQLPIDSDDSRPLLKEMKRGREFRIIFDCSHTMAAQILKQAMAMGMMTEYYHFIFTTLDLYALDLEPYRYSGVNLTGFRILNVDNAHVSAIVEKWSMERLQAAPRAESGLLDGVMMTDAALLYDAVHIVSVCYQRASQMTVNSLQCHRHKPWRFGGRFMNFIKEAQWEGLTGRIVFNKTSGLRTDFDLDIISLKEDGLEKVGVWSPADGLNITEVAKGRGPNVTDSLTNRSLIVTTLLEEPFVMFRKSDRTLYGNDRFEGYCIDLLKELAHILGFSYEIRLVEDGKYGAQDDKGQWNGMVKELIDHKADLAVAPLTITHVREKAIDFSKPFMTLGVSILYRKPNGTNPSVFSFLNPLSPDIWMYVLLAYLGVSCVLFVIARFSPYEWYDAHPCNPGSEVVENNFTLLNSFWFGMGSLMQQGSELMPKALSTRIIGGIWWFFTLIIISSYTANLAAFLTVERMESPIDSADDLAKQTKIEYGAVKDGATMTFFKKSKISTFEKMWAFMSSKPSALVKNNEEGIQRTLTADYALLMESTTIEYITQRNCNLTQIGGLIDSKGYGIGTPMGSPYRDKITIAILQLQEEDKLHIMKEKWWRGSGCPEEENKEASALGIQKIGGIFIVLAAGLVLSVLVAVGEFIYKLRKTAEREQRSFCSTVADEIRFSLTCQRRLKHKPQPPMMVKTDAVINMHTFNDRRLPGKDSMSCSTSLAPVFP
# B2: GluK3: T249A/S404A (protein)
# parent chain: B1 parent chain
# B3: GluK3: T397A/S404A (protein)
# parent chain: B1 parent chain
# B4: GluK3: T397A (protein)
# parent chain: B1 parent chain
# B5: GluK3: S404A (protein)
# parent chain: B1 parent chain
# B6: GluK3: T249A (protein)
# parent chain: B1 parent chain
# B7: GluK3: N721A glycan knockout (Methods: T723A) (protein)
# parent chain: B1 parent chain
# Assay: whole-cell patch clamp, 30 mM glutamate, HEK293
# Conditions: glycan lost; control: wild type GluK3
row,Protein,"other: desensitization time constant, other: mean weighted tau_des"
1,B1,"no change, 4.3 ± 0.2 vs 3.8 ± 0.5"
2,B2,"no change, 4.1 ± 0.2 vs 3.8 ± 0.5"
3,B3,"no change, 4.0 ± 0.4 vs 3.8 ± 0.5"
4,B4,"no change, 3.2 ± 0.2 vs 3.8 ± 0.5"
5,B5,"no change, 4.5 ± 0.3 vs 3.8 ± 0.5"
6,B6,"no change, 3.7 ± 0.4 vs 3.8 ± 0.5"

# Assay: whole-cell dose-response, 30 µM-30 mM glutamate
# Conditions: glycan lost; control: wild type GluK3
row,Protein,"other: glutamate EC50 of channel current, EC50"
1,B1,"decreases, 6.5 vs 9.5"
2,B2,"decreases, 5.3 vs 9.5"
3,B3,"decreases, 5.7 vs 9.5"
4,B4,"decreases, 3.7 vs 9.5"
5,B5,"no change, 10.3 vs 9.5"
6,B6,"decreases, 7.2 vs 9.5"

# Assay: surface biotinylation, anti-GluR6/7 blot, HEK293
# Conditions: glycan lost; control: wild type GluK3
row,Protein,localisation_or_trafficking
1,B1,no change
2,B2,no change
3,B3,no change
4,B4,no change
5,B5,no change
6,B7,abolishes
7,B6,no change

# Assay: two-pulse 30 mM glutamate protocol, whole-cell patch clamp
# Conditions: glycan lost; control: wild type GluK3
row,Protein,"other: time constant of recovery from desensitization, other: tau_rec"
1,B2,"decreases, 0.3 vs 0.9"
2,B3,"decreases, 0.5 vs 0.9"
3,B4,"no change, 0.8 vs 0.9"
4,B5,"decreases, 0.5 vs 0.9"
